Target: activated β1 integrin on bovine capillary endothelial (CE) cells (bovine) (UniProt P53712)
Test: cell-based or functional assay

Sequence of activated β1 integrin on bovine capillary endothelial (CE) cells (bovine) (P53712 21-798): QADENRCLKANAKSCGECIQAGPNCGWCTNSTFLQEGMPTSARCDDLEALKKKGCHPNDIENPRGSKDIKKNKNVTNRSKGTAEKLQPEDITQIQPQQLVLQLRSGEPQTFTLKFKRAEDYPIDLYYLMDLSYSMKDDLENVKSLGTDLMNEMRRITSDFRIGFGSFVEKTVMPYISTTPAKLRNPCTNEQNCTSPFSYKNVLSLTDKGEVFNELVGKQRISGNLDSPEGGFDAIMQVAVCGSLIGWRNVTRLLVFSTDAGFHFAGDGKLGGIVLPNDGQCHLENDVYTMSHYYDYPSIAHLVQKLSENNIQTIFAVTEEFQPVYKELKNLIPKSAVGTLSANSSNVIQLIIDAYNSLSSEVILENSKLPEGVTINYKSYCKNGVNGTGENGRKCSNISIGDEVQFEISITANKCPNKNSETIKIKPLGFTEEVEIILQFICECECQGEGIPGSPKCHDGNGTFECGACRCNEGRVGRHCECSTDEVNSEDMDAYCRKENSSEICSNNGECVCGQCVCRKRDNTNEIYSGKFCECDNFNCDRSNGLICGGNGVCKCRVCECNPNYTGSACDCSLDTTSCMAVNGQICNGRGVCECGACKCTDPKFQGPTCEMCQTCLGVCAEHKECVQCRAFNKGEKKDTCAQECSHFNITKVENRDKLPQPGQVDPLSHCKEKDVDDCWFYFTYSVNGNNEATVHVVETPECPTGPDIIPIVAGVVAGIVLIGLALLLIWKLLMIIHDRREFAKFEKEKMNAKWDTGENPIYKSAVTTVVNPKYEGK

Substance: function-blocking anti-β1 integrin (P5D2) antibody
- decrease in strain-induced cell realignment: 70%
